Measured values: the nanobody polyreactivity screen of Harvey et al. (2022)

Assay: yeast display, Sf9 membrane polyspecificity reagent, FACS + sequencing; frameworks hold sequencing errors
How it was run: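 Synthetic nanobody libraries on Saccharomyces cerevisiae BJ5465 were galactose-induced for 36–48 hours, stained 1 hour at 4 °C with 10% biotinylated, detergent-solubilized Sf9 membrane reagent and enriched on streptavidin microbeads. FACS then separated cells into low and high (top ~1%) gates by anti-HA (expression) and streptavidin (reagent binding) fluorescence. Genes were colony-PCR amplified, MiSeq 2 × 250 sequenced and CDR-length filtered. A clone's polyreactivity label is that of its gate of origin.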

| Sequence | polyreactivity (PSR sort gate) |
| --- | --- |
| QVQLVESGGGFVQAGGSLRVSCAASGSIFGSYAMGWYRQAPGKERELVADISSGGSTNYADSVKGRFTISRDNAKNTVYLQMNSLKPEDTAVYYCNADDPAGYLYWWGSWLESDYWGQGTQGTVSS | low polyreactivity |
| QVQLVESGGGLVQAGGSLRLSCAASGSIFRQYAMGWYRQAPGKDRELVAAIRSGGSTYYADSVQGRFTISRDNAKNTVYLQMNSLKPEDTAVYYCARGYSWSVGYPRVQDMDYWGQGTQVTVSS | high polyreactivity |
| QVQLVESGGGLVQAGGSLRLSCAASGGTFGYYTMGWYRPAPGKERELVSAISSGGGTDYADSVKGRFTISRDNAKNTVYLQMNSLKPEDTAVYYCNAKWLEWHYVFLPSYTMDYWGQGTQVTVSS | low polyreactivity |
| QVQLVESGGGLVQAGGSLRLSCAATGIIIDSNAMGWYRQAPGKERELVAAITSGGSTKYADSVKGRFTISRDNAKNTVYLQMNSLKPEDTAVYYCAAGGSYYRDDYWGQGTQVTVSS | low polyreactivity |
| QVQLVESGGGLVQAGGSLRLSCAASGGTFVGYAMGWYRQAPGKERELVAAINSSGGRTYYADSVKGRFTISRDNAKNTVYLQMNSLKPEDTAVYYCAKPRTYHKDKYDYWGQGTQVTVSS | high polyreactivity |
| QVQLVESGGGLVQAGGSLRLSCAASGSTVVRYGMGSYRQAPGKERELVAVISRSGGSTYYADSVKARFTISRDNAKNTVFLQMNSLKPEDTAVYYCAITRYGNPNSGGVGYWGQGTQVTVSS | high polyreactivity |
| QVQLVESGGGLVQAGGSLRLSCAASGSTFGSYTKGWSRPAPGQERELVAAINWSGGNTYYADSVKGRFTISRDNAKNTVYLQMTSLKREDTAVYYCAAAFYIYGVEGDYWGQGTQVTVSS | low polyreactivity |
| QVQLVESGGGLVQAGGSLRLSCAASGRTFVYYAMGWYRQAPGKERELVAAITSVGSTYYADSVKGRCTISRDNAKNTVYLQMNSLKPEDTAVYSCAKDTWAYPYYWPYDDYWGHGTQVTVSS | low polyreactivity |
| QVQLVESGGGLVQAGGSLRLSCAASGRIFTSYVMGWDRQAPGKERELVAAITRSGGSTYYADSVKGRFTISRDNAKNTVYLQMNSQKPEDTAVYYCAAGVRGGGGRYRYGYWGQGTQVTVSS | high polyreactivity |
| QVQLVESGGGLVQAGGSLRLSCAASGRTFYNAMGWYRQAPVKEMELVAAITTGGGTKYADSVKGRFTISRDNAKNTFYLQMNSLKPEDTAVYYCNTDEWYHFYHGAHKYDYWGQGTQVTLSS | low polyreactivity |
| QVQVVESGGGLVQAGGRLRLSCAASGRIFYWYAMGWSRQAPGKERELVADINHGDTSTYYADSVKGRFTISRDKAKNTVYLQMNSLKPEDTAVYYCNVRSYVYSRWYQSTWGYYYWGQGTQVTVSS | high polyreactivity |
| QVQLVESGGGLVQAGGSLRLSCAASGITIRYYAMGWYRQAPGKERELVAAITRRGGSTSYADSVKGRFTISRDNAKNTVYLQMNSLKPEDTAVYYCNARKYTNQATYDYWGQGTQVTVSS | high polyreactivity |
| QVQLVESGGGLDQAGRSLRLICAASVFTIHAYAMGRYRQAHGKERELVAAISASGGSTYYADSVKGRFTISRDNANNTVYLKMNSLKPEDTAVYYCNAGDYRTFYRRFDYWGQGTQVTVSS | low polyreactivity |
| QVQLVESGGCLVQAGGSLRLSCASSGFTIWQNAMGWYRQAPGKERELVAGIRLSGGSTYADSEKGRFTISRDNAKNTVYLQMNSLKPEDTAVYYCAARIAGYYRYRSLRYDYWGQGTQGTVSS | high polyreactivity |
| QVQLVESGRGLVQAGGSLRLSCAASGSIFSGNAMGWYRQAPGKERELVAAISRSGGSTYYADSVKGRFTISRDNAKNTVYLQLYSLKPEDTAVYYCAAYRTHGPPRALRFDYWGQGTLVTVSS | high polyreactivity |
| QVQLVESGGGLVQAGGSLRLSCAASGGTFNSNAMGWYRQAPGKERELVAGITSGSDTSYADSVKGRFTISRDNAKNTVYLQMNSLKPEDSAVYYCATRDYPLYGYWGQGTQVTVSS | low polyreactivity |

| Sequence | polyreactivity (PSR sort gate) |
| --- | --- |
| QVQLVESGGGVVQAGGSLRLSCAASGSTFHYYAMGWYRQAHGKERELVAAISYSSGSTYYADSVKGRVTISRDNAKNHVYLQMISLKPEDTAVYYCATESYSYYIHTTYYYWGQGTQVTLSS | low polyreactivity |
| QVQLVESGGGLVQAGGSLRLSCAASGSIFGPYAMGWYRQAPGKERELVAAITSGGSTYYADSVKGRFTISRDNAKNTVYLQMNSLKPEDTAVYYCNAESYFWDFYDYDHWGQGTQVTLSS | low polyreactivity |
| QVQLVESGGGLVQAGGSLRLSCAASGSTFYIYAMGWYRQAPGKERELVAAITSGGNTYYADSVKGRFTISRDNAKNTVYLQMNSLKPEDTAVYYCAAELYDRWSRMDYWGQGTQVTVSS | low polyreactivity |
| QVQLVESGGGLVQAGGSLRISCAASGITFSYYAMGWYIQAPGKERELVAAINSGGGSTYYADSVKGRFTISRDNAKNTVYLQMNRLKPEDTAVYYFAARYRSRYDYYYDRDYWGQGTQVTVSS | low polyreactivity |
| QVQLVESGGGLVQAGGSLRLSCAASGSIFDVNTMGWYRQAPGKERELVAAITNGDRTNYADSVKGRFTISRDNAKNTVYLQMNSLKPEDTAVYYCNTDQGTTSDYGYWGQGTQVTVSS | low polyreactivity |
| QVQLVESGGGLVQAGGSLRLSCAASGSTFGPYDMGWYRQAPGQERDLVAAITRSGGRTYYADSVKGRFTFSRDNAKNTVYLQKNSLKPEDTAVYYCAAPPSEATSQRYKYNYWGQGTQVTVSS | high polyreactivity |
| QVQLVESGGGLVQAGGSLRLSCAASGINFDTNAIGWYRQAPGKERELVATITQRGGTTYYADSVKGRFTISRDNAKNTVYLQMNSLKPEDTAVYYCNAGPVGLPYDSWGQGTQVTVSS | low polyreactivity |
| QVQLQESGGGLVQACGSLRLSCAASGYIFSHQYMGWYRQAPGKERELVASISPGATTNYADSVKGRFTISRDNAKNTVYLQMNSLKPEDTAVYYCARRYRPKYGYWGQGTQVTVSS | high polyreactivity |
| QVQLVESGGGLVQAGGSLRLSCAASGSTFGYYTMGWYRQAPGKERELVAAITWSGGSTYYADSVKGRFTISRDNAKNSVYLQINSLKPEDSSVYYCAADDYWTPFGYWGQGTQVTVSS | low polyreactivity |
| QVQLVESGGGLVQAGGSLRLSCAASGFILYFNAMGWYSQAPGKERELVAAITSDGGSTYYADSVKGRFTISRDNAKNTVYLQMNSLKPEDTAVYYCAADASTWYTEEYWGQGTQVTVSS | low polyreactivity |
| QDHLVESGGGLVQAGGSLRVSCAASGLVYGQYAMGWYRPAPGKERELVAAINWSGGRTYYADSVKGRFTISRDNAKNTVYLQMNSLKPEDTAVYYCAADDPQDQDYENNYWGQGTQVNVSS | high polyreactivity |
| QVQLVESGGGLDQAGGSLRLSCAASGRTFRHYAMGWYRQAPGKERELVASIRWNGASTNYADSVKGRFTISRDNAKNTVYLQMNSLKPEDTAVYYCAARFGSGFNYWGQGTQVTVSS | high polyreactivity |
| QVQLVESGVGLVQAGGSLRLSCASSGFIFNYNTMGWYRQAPGKETELVAAISSSGGSTYYADSVKGRFTISRDNAKNTVYLQMNSLKPEDTAVYYCGAGANAQRVPNGDYWGQGTQVTVSS | low polyreactivity |
| QVQLVESGGGLVQAGGSLRLSCAASGSIFVGYDMGWYRQAPGKERELVAAITGTVSTYYADSVKGRFTISRDNAKNTVYLQMNSLKPEDTAVYYCAAEFVYAYGDGGVYWSWMEYWGQGTQVTVSS | low polyreactivity |
| QVQLVESGGGLVQAGGSLRLSCAASGRTFFPYAMGWYRQAPGKERELVATIRYRGGSTSYADSVKGRFTISRDNAKNTVYLQMNSLKPEDTAVYYCAARLQRTPRVYSSYFEYDYWGHGTQVTVSS | low polyreactivity |
